Data: IntAct's records for PubMed 23932592

B1: Syntaxin-6 (Homo sapiens), O43752 (parent)
chain: MSMEDPFFVVKGEVQKAVNTAQGLFQRWTELLQDPSTATREEIDWTTNELRNNLRSIEWDLEDLDETISIVEANPRKFNLDATELSIRKAFITSTRQVVRDMKDQMSTSSVQALAERKNRQALLGDSGSQNWSTGTTDKYGRLDRELQRANSHFIEEQQAQQQLIVEQQDEQLELVSGSIGVLKNMSQRIGGELEEQAVMLEDFSHELESTQSRLDNVMKKLAKVSHMTSDRRQWCAIAILFAVLLVVLILFLVL
partner: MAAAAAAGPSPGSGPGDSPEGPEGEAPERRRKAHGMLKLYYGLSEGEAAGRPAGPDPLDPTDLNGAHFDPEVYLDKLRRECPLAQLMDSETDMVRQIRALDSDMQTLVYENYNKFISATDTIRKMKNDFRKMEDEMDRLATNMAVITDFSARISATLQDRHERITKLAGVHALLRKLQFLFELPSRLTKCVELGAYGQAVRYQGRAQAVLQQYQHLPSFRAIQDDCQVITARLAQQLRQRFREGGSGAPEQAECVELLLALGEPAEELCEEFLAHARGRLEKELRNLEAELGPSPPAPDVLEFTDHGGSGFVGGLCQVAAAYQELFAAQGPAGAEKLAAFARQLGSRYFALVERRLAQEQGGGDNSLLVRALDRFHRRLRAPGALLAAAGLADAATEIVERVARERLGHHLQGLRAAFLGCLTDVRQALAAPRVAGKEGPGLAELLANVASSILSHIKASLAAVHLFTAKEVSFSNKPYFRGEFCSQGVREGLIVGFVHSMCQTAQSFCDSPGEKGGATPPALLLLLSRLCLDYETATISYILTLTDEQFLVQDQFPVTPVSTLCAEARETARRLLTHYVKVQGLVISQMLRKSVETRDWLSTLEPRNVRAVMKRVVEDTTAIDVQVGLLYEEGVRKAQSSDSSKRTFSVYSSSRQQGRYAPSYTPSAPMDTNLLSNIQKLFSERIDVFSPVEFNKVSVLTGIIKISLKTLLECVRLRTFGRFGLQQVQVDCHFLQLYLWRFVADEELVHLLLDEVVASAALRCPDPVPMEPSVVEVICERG
B2: Vacuolar protein sorting-associated protein 51 homolog (Homo sapiens), Q9UID3-1 (parent)
chain: B1 partner
partner: B1 chain
B3: Vacuolar protein sorting-associated protein 51 homolog (Homo sapiens), Q9UID3-1 (parent)
chain: B1 partner
partner: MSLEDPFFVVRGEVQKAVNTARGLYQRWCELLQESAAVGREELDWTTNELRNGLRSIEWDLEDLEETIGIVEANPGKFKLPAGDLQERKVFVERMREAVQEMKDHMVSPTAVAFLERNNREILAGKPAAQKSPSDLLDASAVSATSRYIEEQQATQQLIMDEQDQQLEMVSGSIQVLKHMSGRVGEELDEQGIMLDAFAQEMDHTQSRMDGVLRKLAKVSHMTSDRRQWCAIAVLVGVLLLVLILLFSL
B4: Syntaxin-10 (Homo sapiens), O60499-1 (parent)
chain: B3 partner
partner: B1 partner

Variants of: B1
Settings: with VPS51, Q9UID3-1

effect of a mutation on the interaction | Variant
disrupting interaction strength | F7L
disrupting interaction strength | D5L
disrupting interaction strength | P6A
disrupting interaction strength | R88M

Variants of: B2
Settings: with stx6_human STX6, O43752

effect of a mutation on the interaction | Variant
disrupting interaction strength | L37A
disrupting interaction strength | Y41A
disrupting interaction strength | Y40A

Variants of: B2
Settings: with stx6_human STX6, O43752
Remark: another data set of the same source

effect of a mutation on the interaction | Variant
disrupting interaction strength | Y40A;Y41A

Variants of: B3
Settings: with STX10, O60499-1

effect of a mutation on the interaction | Variant
disrupting interaction strength | L37A
disrupting interaction strength | Y41A
disrupting interaction strength | Y40A

Variants of: B3
Settings: with STX10, O60499-1
Remark: another data set of the same source

effect of a mutation on the interaction | Variant
disrupting interaction strength | Y40A;Y41A

Variants of: B4
Settings: with VPS51, Q9UID3-1

effect of a mutation on the interaction | Variant
disrupting interaction strength | P6A
disrupting interaction strength | D5L
disrupting interaction strength | F7L
disrupting interaction strength | R88M
